Measured values from the supplement of paper PMC10126150.
± gives the standard deviation of the averaged measurements.

Tested on: ATP
Assay: switch fluorescence ratio, 500 uM ATP over buffer (Cy3 cluster intensity, sum of 5 cycles each) (fold (ratio)); higher = stronger signal-on switching upon ATP binding; sequences stand for … in TCGTCGGCAGCGTCAGATGTGTATAAGAGACAGTTTTTTTTTTTTTTTTTTTTTTTTT…TC
Settings: aptamer strand: ATP DNA aptamer (quencher-CACCTGGGGGAGTATTGCGGAGGAAGG + anchor), 100 nM annealed; ATP concentration: 500 uM
Method in brief: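 Values give the fluorescence ratio for each switch-domain sequence, averaged from per-cluster ratios of summed target-cycle to summed buffer-cycle Cy3 intensity. The Cy3-labelled switching-strand clusters sat on a modified Illumina MiSeq flow-cell, were annealed to 100 nM quencher-labelled ATP aptamer, and were imaged in selection buffer, then after 15 min with 500 uM ATP at 22 °C. Five cycles ran with NaOH stripping and re-annealing between them, and clusters outside 100-1000 RFU were excluded.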
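Also: ATP exposure 15 min at 22 °C before imaging.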

| Sequence | switch fluorescence ratio |
| --- | --- |
| ACTACTACCA | 1.31 ± 0.048 |
| ACTAGACTAG | 0.984 ± 0.044 |
| ACTAGGGGGG | 1.01 ± 0.022 |
| ACTAGGGTAT | 0.982 ± 0.061 |
| ACTAGGGTGC | 1.14 ± 0.014 |
| ACTAGGGTTG | 0.993 ± 0.02 |
| ACTAGGTATT | 1.03 ± 0.033 |
| ACTAGGTCAT | 1.03 ± 0.017 |
| ACTAGGTGGG | 1.01 ± 0.041 |
| ACTAGTAGTC | 0.994 ± 0.012 |
| ACTAGTGCGG | 1.01 ± 0.028 |
| ACTAGTTGTC | 0.991 ± 0.033 |
| ACTATATGAT | 1.08 ± 0.043 |
| ACTATATTGG | 1.065 ± 0.0095 |
| ACTATCGGTT | 1.07 ± 0.075 |
| ACTATGCTTT | 1.021 ± 0.0059 |
| ACTATGGATG | 1.02 ± 0.036 |
| ACTATGGGGG | 0.995 ± 0.036 |
| ACTATGTAGG | 0.979 ± 0.013 |
| ACTATTGGTA | 1.03 ± 0.046 |
| ACTATTTGCA | 1.019 ± 0.0057 |
| ACTCAATGCA | 1.06 ± 0.045 |
| ACTCACGGGA | 1.46 ± 0.36 |
| ACTCAGCGCG | 1.08 ± 0.029 |
| ACTCATATAT | 1.02 ± 0.0045 |

| Sequence | switch fluorescence ratio |
| --- | --- |
| ACTCATGACG | 1.045 ± 0.0025 |
| ACTCATTTAC | 1.21 ± 0.096 |
| ACTCGATACG | 1.07 ± 0.037 |
| ACTCGGACCG | 1.0425 ± 0.00055 |
| ACTCGGGGTG | 0.998 ± 0.025 |
| ACTCGGTGGG | 1.01 ± 0.035 |
| ACTCGGTTTG | 0.949 ± 0.067 |
| ACTCGTTGTC | 1.02 ± 0.035 |
| ACTCGTTTCG | 1 ± 0.013 |
| ACTCTAGGTG | 3.47 ± 0.091 |
| ACTCTGGGTC | 1.07 ± 0.016 |
| ACTCTGGTCA | 0.986 ± 0.027 |
| ACTCTGTTTT | 1.01 ± 0.012 |
| ACTCTTACTT | 1.157 ± 0.0042 |
| ACTCTTAGGG | 1.03 ± 0.027 |
| ACTCTTTCGG | 1 ± 0.063 |
| ACTGAGTGGC | 1.06 ± 0.029 |
| ACTGATACGT | 1.12 ± 0.017 |
| ACTGATGAAG | 0.991 ± 0.049 |
| ACTGCAAGGA | 1.029 ± 0.0078 |
| ACTGCGAATA | 1.41 ± 0.021 |
| ACTGCTGGGA | 1.01 ± 0.015 |
| ACTGGATCAC | 1.099 ± 0.0035 |
| ACTGGATTGG | 1.01 ± 0.042 |
| ACTGGATTTG | 0.9885 ± 0.002 |

| Sequence | switch fluorescence ratio |
| --- | --- |
| ACTGGCATCC | 1.08 ± 0.029 |
| ACTGGCGGCG | 1 ± 0.012 |
| ACTGGCGTGC | 1.04 ± 0.07 |
| ACTGGGAGTG | 1 ± 0.042 |
| ACTGGGATC | 1.01 ± 0.019 |
| ACTGGGATCA | 1.03 ± 0.02 |
| ACTGGGGAGG | 1.01 ± 0.022 |
| ACTGGGGGAA | 0.97 ± 0.018 |
| ACTGGGGGAG | 1.02 ± 0.015 |
| ACTGGTTATC | 1.02 ± 0.046 |
| ACTGGTTATT | 1 ± 0.016 |
| ACTGGTTCGT | 0.998 ± 0.012 |
| ACTGTAAGGC | 1.07 ± 0.02 |
| ACTGTAATTC | 1.19 ± 0.041 |
| ACTGTAATTT | 1.18 ± 0.027 |
| ACTGTACGCA | 1.51 ± 0.086 |
| ACTGTGCACC | 1.05 ± 0.052 |
| ACTGTGCCGG | 1.02 ± 0.043 |
| ACTGTGGGGC | 0.9788 ± 0.0057 |
| ACTGTGTTAT | 0.983 ± 0.02 |
| ACTGTTAGTA | 1.01 ± 0.011 |
| ACTGTTATAT | 1.044 ± 0.0053 |
| ACTTAAAAAC | 1.08 ± 0.055 |
| ACTTACGGCG | 1.168 ± 0.0051 |
| ACTTAGCAGG | 1.08 ± 0.013 |

| Sequence | switch fluorescence ratio |
| --- | --- |
| ACTTAGGCG | 1.05 ± 0.086 |
| ACTTAGGGGG | 1.01 ± 0.024 |
| ACTTCAGGGA | 1.01 ± 0.024 |
| ACTTCGGGGC | 1.12 ± 0.027 |
| ACTTGAACGG | 1.16 ± 0.034 |
| ACTTGAAGGT | 1.02 ± 0.017 |
| ACTTGCTTTA | 1.04 ± 0.017 |
| ACTTGGGAAT | 1.03 ± 0.02 |
| ACTTGTGAAG | 1.0247 ± 0.00063 |
| ACTTGTGCAG | 0.978 ± 0.026 |
| ACTTGTGCTT | 0.9728 ± 0.0027 |
| ACTTGTGGCT | 1.01 ± 0.018 |
| ACTTGTTATG | 0.996 ± 0.028 |
| ACTTGTTTAT | 0.981 ± 0.032 |
| ACTTGTTTTT | 0.99 ± 0.033 |
| ACTTTACGGC | 1.286 ± 0.0091 |
| ACTTTAGCAG | 1.034 ± 0.0063 |
| ACTTTCAGCC | 1.03 ± 0.017 |
| ACTTTCGGTT | 1.003 ± 0.0023 |
| ACTTTGATTG | 0.982 ± 0.024 |
| ACTTTGCCAC | 1.18 ± 0.016 |
| ACTTTGCTAG | 1.03 ± 0.024 |
| ACTTTGGCGT | 1.03 ± 0.014 |
| ACTTTGGGTT | 1.01 ± 0.023 |
| ACTTTGGTGG | 1 ± 0.029 |

| Sequence | switch fluorescence ratio |
| --- | --- |
| ACTTTGTATG | 1 ± 0.017 |
| ACTTTTACTC | 1.16 ± 0.014 |
| ACTTTTGCGG | 1.021 ± 0.0092 |
| ACTTTTTGGC | 0.975 ± 0.022 |
| ACTTTTTTT | 1 ± 0.0022 |
| AGAAAAAGGT | 1.01 ± 0.032 |
| AGAAAAGCAG | 1.02 ± 0.015 |
| AGAAAATAGA | 0.9789 ± 0.0084 |
| AGAAAATTAG | 1.02 ± 0.039 |
| AGAAAATTGT | 1.01 ± 0.025 |
| AGAAAATTTT | 1.03 ± 0.031 |
| AGAAACAAAC | 1.041 ± 0.0083 |
| AGAAAGCGCG | 1.05 ± 0.019 |
| AGAAAGGGGC | 1.31 ± 0.31 |
| AGAAAGGGTT | 0.98 ± 0.022 |
| AGAAAGGTAT | 1.11 ± 0.25 |
| AGAAAGTCAA | 1.0199 ± 1.9e-05 |
| AGAAATCGGA | 1.038 ± 0.0056 |
| AGAACAGCAT | 1.01 ± 0.021 |
| AGAACAGGTG | 3.18 ± 0.27 |
| AGAACTCACC | 1.19 ± 0.049 |
| AGAACTCTTT | 1.02 ± 0.022 |
| AGAAGAAGTA | 0.9955 ± 0.0035 |
| AGAAGCTAAG | 0.996 ± 0.015 |
| AGAAGGAGGT | 0.9874 ± 0.0089 |

| Sequence | switch fluorescence ratio |
| --- | --- |
| AGAAGGCCGG | 0.98 ± 0.056 |
| AGAAGGCGCG | 1.01 ± 0.038 |
| AGAAGGCGGG | 0.985 ± 0.029 |
| AGAAGGGGAC | 1.02 ± 0.026 |
| AGAAGGGGG | 0.968 ± 0.022 |
| AGAAGGGGGC | 0.989 ± 0.062 |
| AGAAGGGGGT | 1.02 ± 0.035 |
| AGAAGGGTTA | 1.01 ± 0.017 |
| AGAAGGTATG | 1.0001 ± 0.0006 |
| AGAAGTAAGA | 0.998 ± 0.0065 |
| AGAAGTGATA | 0.976 ± 0.023 |
| AGAAGTGGTC | 1.01 ± 0.031 |
| AGAATAATGG | 1 ± 0.022 |
| AGAATCGACG | 0.993 ± 0.056 |
| AGAATCGAGT | 1.01 ± 0.025 |
| AGAATCTTTC | 1.05 ± 0.071 |
| AGAATGGAGA | 1 ± 0.013 |
| AGAATGGATC | 1.01 ± 0.012 |
| AGAATGTCGA | 0.968 ± 0.068 |
| AGAATTAAGG | 1.01 ± 0.045 |
| AGAATTACTT | 1.001 ± 0.0092 |
| AGAATTAGAG | 0.969 ± 0.054 |
| AGAATTCCCT | 1.011 ± 0.01 |
| AGAATTCTAG | 1.01 ± 0.022 |
| AGAATTGGCA | 1 ± 0.037 |

| Sequence | switch fluorescence ratio |
| --- | --- |
| AGAATTTAAA | 0.992 ± 0.032 |
| AGACACTGAC | 1.45 ± 0.028 |
| AGACATAGAG | 1 ± 0.011 |
| AGACCCTTTT | 0.994 ± 0.037 |
| AGACCGAGAC | 1.18 ± 0.079 |
| AGACCTGGCC | 1.14 ± 0.011 |
| AGACGAAGT | 1 ± 0.019 |
| AGACGAGAAT | 1.09 ± 0.14 |
| AGACGATTAG | 0.977 ± 0.03 |
| AGACGGACGT | 1.05 ± 0.013 |
| AGACGGGTAG | 0.968 ± 0.032 |
| AGACGTAGTA | 1.03 ± 0.014 |
| AGACGTAGTG | 0.99 ± 0.029 |
| AGACGTCACT | 1.77 ± 0.12 |
| AGACTCAATG | 0.988 ± 0.07 |
| AGACTCCAAG | 1 ± 0.059 |
| AGACTGACAA | 1.1 ± 0.021 |
| AGACTGGTTG | 0.993 ± 0.035 |
| AGACTTTAGT | 1.01 ± 0.036 |
| AGACTTTGAG | 1.03 ± 0.061 |
| AGAGAAGATG | 1.01 ± 0.034 |
| AGAGAAGGTC | 1.017 ± 0.0086 |
| AGAGAAGTGA | 0.986 ± 0.032 |
| AGAGAATGGT | 0.999 ± 0.027 |
| AGAGACACAT | 1 ± 0.0086 |

| Sequence | switch fluorescence ratio |
| --- | --- |
| AGAGACATGC | 0.923 ± 0.085 |
| AGAGACCCCG | 0.971 ± 0.039 |
| AGAGACGAAT | 1.013 ± 0.0085 |
| AGAGAGGAGT | 0.982 ± 0.021 |
| AGAGAGGGCG | 0.888 ± 0.14 |
| AGAGAGGGGC | 0.971 ± 0.014 |
| AGAGAGGGGT | 1.01 ± 0.047 |
| AGAGAGGGTG | 1.06 ± 0.048 |
| AGAGATGTAG | 0.966 ± 0.023 |
| AGAGATTCAC | 1.03 ± 0.013 |
| AGAGCGTTGT | 0.977 ± 0.023 |
| AGAGCTGGGA | 0.965 ± 0.015 |
| AGAGGAGGTG | 1.02 ± 0.03 |
| AGAGGAGTGC | 0.958 ± 0.056 |
| AGAGGCCAAC | 1.002 ± 0.0062 |
| AGAGGCCGGG | 1 ± 0.032 |
| AGAGGCCGTT | 0.9965 ± 0.0074 |
| AGAGGCGGGA | 0.956 ± 0.11 |
| AGAGGCTTAG | 1 ± 0.066 |
| AGAGGGAAAC | 1.14 ± 0.3 |
| AGAGGGAGAT | 0.9876 ± 0.0098 |
| AGAGGGATTA | 0.999 ± 0.037 |
| AGAGGGGGTT | 0.971 ± 0.035 |
| AGAGGGGTAA | 0.998 ± 0.029 |
| AGAGGGGTAT | 1.04 ± 0.017 |
